From US20100297160A1 (MEDICAL COLLEGE OF GEORGIA RESEARCH INSTITUTE, published 2010) come the findings set out here.

This test has as its target human amyloid beta 42 (Aβ42) (human). As to the kind of experiment: co-incubation of equimolar peptides for one month at 37 C, dialysis, 10 kDa filter concentration, SDS gel. As for the experimental part: Various means were studied to enhance the immune potential of amyloid peptides. One such approach was derived from experiments with samples of human plasma and brain tissues having a complex of peptides that expressed epitopes for both human Aβ peptide and human RAGE. This involved the incubation of equimolar amounts of Aβ and an immunogenic fragment of RAGE for one month in sterile water at 37° C.
After incubation, the solution was dialyzed to remove unused products. The dialyzed solution was then concentrated in a centrifugation filter with a 10,000 molecular weight cutoff. […] The concentrated complex was dissolved in water and administered orally to rats on three occasions with two weeks between administrations. Two weeks after the last administration plasma samples were obtained for the determination of Aβ or RAGE titers.

human amyloid beta 42 (Aβ42) (human), sequence (peptide, as listed by the source): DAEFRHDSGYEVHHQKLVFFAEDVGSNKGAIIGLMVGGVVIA

Consider AQNITARIGEPLVLKCKGAPKKPPQRLEWKLN (also called RAGE fragment) [immunogenic fragment of RAGE, amino acids 23 to 54 of human RAGE (RAGE23-54)], for which the binding result is “binds”.
